The data set relates to lupus anticoagulants. Briefly: PTT-LA Screen, lupus patient case study. Conditions: coinciding with the first IV infusion, before the protocol; reference range <=40 sec. In kind it is in vivo, human. As to the method:
On Jan. 5, 2023, the invention was administered to a person who was previously diagnosed in July 2019 with the autoimmune disease Lupus. This diagnosis was validated through a complete ANA Screen blood test panel conducted in July and subsequently in August of 2019 for a second confirmation. The patient was on standard therapies and medications typically prescribed for Lupus until December 2022, during which their symptoms progressively deteriorated. Of note, the patient voluntarily ceased all standard treatments for Lupus and other related auto-immune diseases one month prior to commencing the invention, under the supervision of their treating rheumatologist of the Arthritis & Rheumatic Disease Specialties center.
PTT-LA Screen: Tests for the presence of lupus anticoagulants, which are antibodies that can interfere with blood clotting and are commonly found in lupus patients.

The source of these data is US20250325622A1, “Autoimmune Disease Modulation Protocol” (priority 2024, published 2025).

As to “Inflectra: intravenous (IV) infusion treatment, a monoclonal antibody used to treat a range of inflammatory autoimmune diseases”, the PTT-LA levels entry is “significant spike”.
